# Reference: patent US20240369485A1, “FLUORESCENT SENSOR FOR MONITORING CALCIUM DYNAMICS” (priority 2021, published 2024)
# B1: R-CatchER: red genetically encoded Ca^2+ indicator, mApple A145E/K198D/R216D, SEQ ID NO: 12 (protein)
# chain: EENNMAIIKEFMRFKVHMEGSVNGHEFEIEGEGEGRPYEAFQTAKLKVTKGGPLPFAWDILSPQFMYGSKVYIKHPADIPDYFKLSFPEGFRWERVMNFEDGGIIHVNQDSSLQDGVFIYKVKLRGTNFPSDGPVMQKKTMGWEESEERMYPEDGALKSEIKKRLKLKDGGHYAAEVKTTYKAKKPVQLPGAYIVDIDLDIVSHNEDYTIVEQYEDAEGRHSTGGMDELYK
# Experiments:
# [1] = tested on: primary hippocampal neurons; test: Wide-field imaging in neuronal cultures; assay type: cell-based, mice; conditions: for decrease of fluorescence upon DHPG: 100 μM DHPG; for ER Ca^2+ transient ΔF/F: field stimulation 50 Hz for 1 s
# Method: Wide-field imaging in neuronal cultures. Primary neuronal cultures were generated from embryonic day 18 or postnatal day 0-1 mice and plated onto poly-D-lysine (Sigma) coated coverslips as previously described. Neurons were maintained in neuronal feeding media (Neurobasal media, ThermoFisher Scientific) containing 1% GlutaMAX (ThermoFisher Scientific), 2% B-27 (ThermoFisher Scientific), 0.002 mg/mL Gentamicin (Sigma) with or without 10 μM 5 fluoro 2-deoxyuridine (Sigma-Aldrich) and fed every 3-4 days via half neuronal feeding media exchanges. Neurons were transfected with plasmid(s) through either lipofection or electroporation. For lipofection, at 11-12 days in vitro, cells were transfected using Lipofectamine 2000 Reagent (ThermoFisher Scientific) with a modified protocol. For electroporation, dissociated cells in suspension were electroporated in a cuvette using the 4D-Nucleofector system (Lonza) following the manufacturer's instructions prior to plating in FBS-containing Neurobasal media without B-27. Full media exchange was performed the following day with serum- and antibiotics-free Neurobasal media.
# Neurons were imaged between 12-15 days in vitro, using an inverted (Olympus IX71) or an upright (Scientifica HyperScope) wide-field fluorescence microscope equipped with an epi-fluorescence turret (Olympus), a scientific CMOS camera (Hamamatsu ORCA-Flash4.0 LT), a mercury lamp (Olympus) or an LED light source (CoolLED pE-300ultra), and an oil- (Olympus Uapo/340 40×/1.35NA) or water-immersion objective (Nikon CFI75 LWD 16×W 0.8NA), respectively. R-CatchER or jGCaMP7s was viewed using a TRITC (Chroma 41002) or FITC (Chroma 41001) fluorescence filter cube, respectively. Images were obtained every 5 s or 33.3 ms using Micro-Manager (the Vale lab, UCSF) at room temperature.
# The external solution contained 150 mM NaCl, 3 mM KCl, 2 mM MgCl2, 2 mM CaCl2), 10 mM HEPES, and 20 mM glucose at a pH of 7.35. mGluR agonists were applied in the bath. Field electrical stimulation was applied with a stimulus isolator (World Precision Instruments A360) via an imaging chamber with two platinum wires (Warner Instruments RC-21BRFS). Trains (2 ms to 2 s at 50 HZ) of pulses (10 mA for 2 ms) were controlled by pClamp 10 software and Digidata 1440A data acquisition system (Molecular Devices). Imaging data were processed and analyzed using in-house and NeuroMatic (Jason Rothman) macros in Igor Pro 8 (WaveMetrics).
# [2] = In vitro kinetics by stopped flow spectrofluorometer; assay type: binding
# Method: In vitro kinetics by stopped flow spectrofluorometer. The kinetics were determined by a Hi-Tech SF-61 stopped-flow spectrofluorometer equipped with the mercury-Xe lamp (10 mm path length, dead time of 2.2 ms) at 20° C. For R-CatchER and its variant or R-CEPIA1er, excitation was at 569 nm and a long-pass 590 nm filter was used. For G-CEPIA1er, a 530 nm long-pass filter was set with excitation at 498 nm, while for MCD1, excitation at 587 nm and a long-pass 600 nm filter were applied. For association kinetics, R-CatchER, R-CatchER variant, MCD1, R-CEPIA1er, and G-CEPIA1er were mixed with the same buffer containing an increasing concentration of Ca^2+. For disassociation kinetics, R-CatchER, R-CatchER variant, MCD1, R-CEPIA1er, and G-CEPIA1er in buffers with concentration of Ca^2+ at Kd, were mixed with 5 mM EGTA or buffer. The raw data were fitted using either single exponential for R-CatchER, R-CatchER variant, and MCD1, or double exponential equations for R-CEPIA1er and G-CEPIA1er.
# C2C12 cells = test: HILO imaging of ER Ca^2+ dynamics in C2C12 cells; assay type: cell-based; conditions: ER Ca^2+ release
# Method: Cell culture and transfection. C2C12, HEK293 and HeLa cells were cultured and maintained in Dulbecco's modified Eagle's medium (DMEM) supplemented with 10% fetal bovine serum (FBS) and high glucose (4.5 g/L) at 37° C. R-CatchER, G-CatchER2, G-CEPIA1er, R-CEPIA1er or R-CatchER with GFP-CaSR (wt and mutations) were transfected into cells using Lipofectamine 3000 (Life Technologies), following the manufacturer's instructions. Seed cells onto sterilized 22 mm×40 mm glass microscope slides in 6 cm dishes until about 70% confluency, the day of transfection. The next day, 2 μg of plasmid were mixed with transfection reagent in the reduced serum media Opti-MEM for 4-6 h at 37° C. The media was then replaced with 3 mL of fresh DMEM and incubated at 37° C. for 48 h.
# HILO imaging of R-CatchER, G-CatchER2, R-CEPIA1er, and G-CEPIA1er. […] A quad-band filter set (TRF89901v2, Chroma) was used for filtering out the fluorescence background. Fluorescence images of samples were recorded at 1 Hz as the concentration of ER Ca^2+ was perturbed by perfusion of 3 μM Thapsigargin, 0.5 mM 4-cmc, 1 mM 4-cmc, 100 μM ATP, or 100 μM histamine.
# [3] = pKa determination of the chromophore; assay type: physicochemical
# Method: pKa determination. To measure the chromophore pKa of mApple, EGFP, and mCherry variants, the proteins were prepared in buffers (sodium acetate buffer for pH 3-5, MES buffer for pH 5-6, HEPES buffer for pH 6.5-8, TRIS buffer for pH 8.5-9) covering a pH range from 3 to 10. All samples were Incubated at 4° C. overnight, then the following day, the absorbance and fluorescence spectra were collected using a Shimadzu UV-1601 spectrophotometer and the Spectrofluorimeter.
molecule,measurement,setting,value
B1,decrease of fluorescence upon DHPG,"[1]; primary, first value (dendrites by printed order)",0.13±0.02
same,decrease of fluorescence upon DHPG,"[1]; primary, second value (branchpoints by printed order)",0.08±0.01
same,decrease of fluorescence upon DHPG,"[1]; secondary, first value (dendrites by printed order)",0.12±0.03
same,decrease of fluorescence upon DHPG,"[1]; secondary, second value (branchpoints by printed order)",0.07±0.01
same,ER Ca^2+ transient ΔF/F,[1]; branchpoints,0.077±0.022
same,ER Ca^2+ transient ΔF/F,[1]; primary dendrites,0.083±0.039
same,ER Ca^2+ transient ΔF/F,[1]; secondary dendrites,0.036±0.017
same,ER Ca^2+ transient ΔF/F,[1]; soma,0.173±0.048
same,kon,[2]; Ca^2+ association,>7e+06 M⁻¹ s⁻¹
same,koff,[2]; Ca^2+ dissociation,>2000 s⁻¹
same,Ca^2+ association rate kon,"[2]; stopped-flow, dead time 2.2 ms, 20° C.",≥ 7e+06 M⁻¹ s⁻¹
same,fluorescence decrease ΔF/F,C2C12 cells; 0.5 mM 4-cmc,0.36±0.01
same,fluorescence decrease ΔF/F,C2C12 cells; 1 mM 4-cmc,0.47±0.02
same,apparent pKa,[3]; 0 mM Ca^2+,8.58±0.11
same,apparent pKa,[3]; 10 mM Ca^2+,7.11±0.10
same,pka,[3]; Apo,8.58 ± 0.11
same,pKa (holo),[3]; Holo,7.1
same,pka,[3]; Holo,7.11 ± 0.10
same,pKa (apo),[3]; apo,8.6
